Experimental data taken from paper PMC3830645.

Assays:
[1] = molecular target: EGF/tEGFR: purified tail-truncated EGFR (aa 25–1022) with EGF, solubilized in detergent or reconstituted in nanodiscs
[2] = molecular target: EGF/tEGFR: purified tail-truncated EGFR (aa 25–1022) with EGF, solubilized in detergent or reconstituted in nanodiscs; remark: listed apart in the source

Row | IC50 of inhibition of EGFR (tEGFR) kinase activity [1] | IC50 of inhibition of tEGFR kinase activity [2] | Binder
1 | > 3 µM |  | unligated GST-Mig6 (aa 336–391) (domain or fragment) KSLPSYLNGVMPPTQSFAPDPKYVSSKALQRQNSEGSASKVPCILPIIENGKKVPG
2 |  | 0.74 µM | His6-Mig6 segment 1+2 (aa 336–412) mutant Y394E (domain or fragment) KSLPSYLNGVMPPTQSFAPDPKYVSSKALQRQNSEGSASKVPCILPIIENGKKVSSTHEYLLPERPPYLDKYEKFFR
